Numbering of substitutions follows the chain as printed.
B1: Gfp-IDR_(FtsZ) (Gfp fused to the C-terminal 67 amino acids of E. coli FtsZ, residues 317-383) (domain or fragment, UniProt P0A9A6 317-383, looked up)
chain: MDKRPEITLVTNKQVQQPVMDRYQQHGMAPLTQEQKPVAKVVNDNAPQTAKEPDYLDIPAFLRKQAD
B2: Gfp-IDR_(FtsZ) mut-1 (Ala substitutions at FtsZ positions 352 through 358) (domain or fragment, E. coli, UniProt P0A9A6 317-383, looked up)
chain: B1 chain with K36A, P37A, V38A, K40A, V41A, V42A

Target: ClpXP (ClpX with ClpP protease) (E. coli, UniProt P0A6H1 1-424; P0A6G7 15-207)
Assay: ultrafiltration

Chain of ClpXP (ClpX with ClpP protease) (P0A6H1 whole entry, chain 1 of 2): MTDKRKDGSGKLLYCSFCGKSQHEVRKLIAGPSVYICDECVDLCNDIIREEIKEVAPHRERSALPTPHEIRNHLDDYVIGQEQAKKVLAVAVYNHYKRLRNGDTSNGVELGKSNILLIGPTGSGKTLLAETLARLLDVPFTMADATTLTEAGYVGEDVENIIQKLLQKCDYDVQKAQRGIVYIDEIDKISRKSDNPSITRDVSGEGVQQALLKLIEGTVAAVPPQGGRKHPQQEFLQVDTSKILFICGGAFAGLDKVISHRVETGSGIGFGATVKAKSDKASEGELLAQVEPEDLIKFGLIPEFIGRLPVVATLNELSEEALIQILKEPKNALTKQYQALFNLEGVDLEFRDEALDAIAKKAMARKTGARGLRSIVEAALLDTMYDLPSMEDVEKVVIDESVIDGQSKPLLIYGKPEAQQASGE
Chain of ClpXP (ClpX with ClpP protease) (P0A6G7 15-207, chain 2 of 2): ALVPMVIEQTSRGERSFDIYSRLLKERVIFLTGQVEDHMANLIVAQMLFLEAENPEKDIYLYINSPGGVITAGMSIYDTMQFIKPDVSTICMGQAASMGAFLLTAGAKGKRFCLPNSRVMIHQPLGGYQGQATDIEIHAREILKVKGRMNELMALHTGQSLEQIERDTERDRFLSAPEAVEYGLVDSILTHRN

Row | Binder | binding result
1 | B1 | binds
2 | B2 | binds
